Assay results reported in patent US5677163.

How the values were obtained:
[1] = biological target: KAAFpNA
[2] = biological target: VLKpNA
[3] = biological target: sAAApNA
[4] = biological target: sAAPFpNA
[5] = biological target: sAAPLpNA
[6] = biological target: sAAPMpNA

| Substance | Hydrolysis Rate (A405 /min) [1] | Hydrolysis Rate (A405 /min) [2] | Hydrolysis Rate (A405 /min) [3] | Hydrolysis Rate (A405 /min) [4] | Hydrolysis Rate (A405 /min) [5] | Hydrolysis Rate (A405 /min) [6] |
| --- | --- | --- | --- | --- | --- | --- |
| B. lentus protease (Savinase) (enzyme) | 0.08 A405/min | 0.0003 A405/min | 0.176 A405/min | 1.15 A405/min | 0.23 A405/min | 0.75 A405/min |
| B. amyloliquefaciens subtilisin (protease) (enzyme) | 0.002 A405/min | 0.0017 A405/min | 0.011 A405/min | 0.83 A405/min | 0.45 A405/min | 0.25 A405/min |
| LG-12 protease (Bacillus sp. strain LG-12 subtilisin, product of the sprC gene) (enzyme) | 0.006 A405/min | 0.0008 A405/min | 0.014 A405/min | 0.87 A405/min | 0.58 A405/min | 0.19 A405/min |
